Measured values as given in patent US7709240B2, “AMP deaminase originating streptomyces and utilization thereof” (Amano Enzyme Inc., priority 2004, dated 2010).
“Also recorded” adds a separate entry of the source.

Assays:
[1] = Contaminated phosphatase activity; format: biochemical; details: 37° C., pH 5.6
Procedure: To 1.5 ml of solution obtained by mixing 0.025M 5′IMP-2Na and 0.036M barbital sodium-hydrochloric acid buffer solution (pH 5.6) at the ratio of 1:2, 0.5 ml of sample solution was added so as to obtain a reaction solution, which was reacted at 37° C. for 30 minutes. After the reaction was completed, 200 μl of the solution was taken out, and 5 ml of 6% perchloric acid solution was added so as to stop the reaction. Amidol solution (0.05M, 0.25 ml) was added and mixed, followed by adding and mixing 0.25 ml of 0.067 M ammonium molybdate solution, and further adding and mixing 0.25 ml of water, which was allowed to stand in flowing water for 15 minutes. Then, OD265 was measured. A value similarly measured at the reaction time of 0 minute was defined as a blank. Under the above-mentioned conditions, a case where an absorbance difference is reduced by 0.001 during 30 minutes was defined as one unit.
The contaminated phosphatase activities concerning Aspergillus melleus and Streptomyces murinus were measured. In Aspergillus melleus, the contamination activity was observed. On the other hand, in Streptomyces murinus, the phosphatase activity was not observed.

Substrate specificity [2] = format: biochemical
[3] = Relation between pH and activity of purified enzyme; format: biochemical
Procedure: By using the decrease of OD265 at the time of reaction as an index, the enzyme activity was measured. To 1.5 ml of solution obtained by mixing 0.017M 5′ AMP-2Na and 1/15M phosphate buffer solution (pH 5.6) at the ratio of 1:2, 0.5 ml of sample solution was added so as to obtain a reaction solution, which was reacted at 37° C. for 15 minutes. Then, 2% perchloric acid solution was added so as to stop the reaction and 100 μl of the solution was taken out. Water was added to the solution so that the total amount was 5 ml. Then, OD265 was measured. The value similarly measured at reaction time of 0 minute was defined as a blank. Under the above-mentioned conditions, a case where an absorbance difference is reduced by 0.001 during 60 minutes was defined as one unit.
Next, the relation between pH and activity of the obtained purified enzyme was examined. […] In the wide range of pH from about 4.5 to about 8.5, relatively high activity is observed. In the range of pH from about 5.0 to about 8.0, 70% or more of the reaction property is observed. Furthermore, it is shown that even in the case where pH is 9.0, about 40% of reactivity is obtained.

[4] = Feasibility test 2: nuclease and deaminase treatment of yeast lysate carried out simultaneously; details: simultaneously with nuclease, 70° C., pH5, 3 hours or 5 hours
Procedure: In test 2, treatment with nuclease and treatment with deaminase were carried out simultaneously. Specifically, the treatment was carried out by the following procedure and the IMP conversion rate was calculated. Firstly, nuclease “AMANO” G (Amano Enzyme Inc., 0.1% w/w yeast solid) and “Deamizyme (50,000 units) (trade name of Amano Enzyme Inc., 0.01 to 0.04% w/w yeast solid)” that is an AMP deaminase agent derived from the test enzyme (Aspergillus melleus) or a crude enzyme solution prepared by using Streptomyces murinus were added to yeast lysate (YL-15, 0.2%) and they were reacted with yeast lysate under the conditions at a temperature of 70° C. and pH5 for a predetermined time (3 hours or 5 hours). Then, the reacted product was heat treated, and then subjected to HPLC analysis. Note here that added amount of AMP deaminase derived from Streptomyces murinus was set so that the activity value thereof became the same as that of “Deamizyme (50,000 u/mg product)” (trade name, Amano Enzyme Inc.)

Substrate specificity [5] = format: biochemical; remark: listed apart in the source
Substrate specificity [6] = format: biochemical; remark: listed apart in the source
Source text: It is reported that adenosine deaminase derived from Streptomyces aureofaciens has a wide range of substrate property, for example, catalytic ability of AMP (non-patent document 2). Taken this into consideration, in order to confirm whether deaminase derived from Streptomyces murinus obtained in the above-mentioned method is AMP-deaminase or adenosine-deaminase, the substrate specificity was investigated. Note here that the relative activity, when the enzyme activity with respect to 5′ AMP is defined as 100% is represented. […] In particular, the enzyme acted on 5′dAMP, ADP and ATP favorably. […] Furthermore, it was determined that the enzyme was able to be employed preferably in a reaction using 5′dAMP, ADP and ATP as a substrate.
Then, in the genus Streptomyces in the stored strains of Amano Enzyme Inc., screening of AMP deaminase producing strain was carried out. […] Furthermore, the residual activity was measured when the activity obtained when treatment was not carried out was defined as 100%. […]
In order to determine whether the deaminase derived from transformant (SAD-1) obtained as mentioned above was AMP deaminase or Adenosine-deaminase, the substrate specificity was investigated. […] Furthermore, it was determined that the enzyme can be preferably used with respect to the reaction using 5′-dAMP, ADP and ATP as a substrate.

[7] = pH stability of purified enzyme; format: physicochemical; details: pH from about 6.5 to about 8.0, 30° C. for 30 minutes; treatment at pH 7.0 = reference
Procedure: Next, pH stability of the enzyme was examined by the following procedure. An enzyme solution (0.15 ml) containing 2.8 μg protein (total amount) was adjusted to pH 3 to 8 by using McIlvaine buffer solution, and to pH 8 to 10 by using Atkins-pantin buffer solution. The solution was then allowed to stand at 30° C. for 30 minutes. Thereafter, the residual activity (percent with respect to the enzyme activity in the case where the treatment was carried out in pH 7.0) was measured. It is shown that in the range of pH from about 6.0 to about 8.5, relatively high activity is maintained, and in the range of pH from about 6.5 to about 8.0, about 80% or more of activity is maintained.

B1: AMP deaminase derived from Streptomyces murinus: thermostable AMP deaminase enzyme produced by Streptomyces murinus IFO14802; amino acid sequence SEQ ID NO: 1 (protein, listed as Streptomyces murinus)
chain: APPPRQATAAEARTDAYLRSVKDRPAALRAFFRQLPKGGDLHNHLSGAVNTDYLIELAAEDGLCIDATMTAVPSPCGPGTRPAADARTDRAFHDAIVRAWSMQDFPPDENGHDHFFDTFGKFGEVTWRHRGKLLAQVADTVVANNQSYLETMVTPASDGAKQLADQVGWDADLTALHRKLAAGGKLDKLVADARKEADDGDAEFRATEHCGTAKARPACGLTVRWISQASRGSSPVRVFTQLDLGMRLAEADSRFVAVNLVQPEDWDSSLENYSLQMRMVGYLRTVYPKAHVTLHAGELWPGLVKPEALKFHIAEAVDIAHTQRVGHGVDLVHEDNWQRTARTMAARQIAVEVPFSSNAQILGVKGAEHPFTTYRRYGVPVVLATDDPGVSRIDISHEYQYAAATYGLGYPELKDLARASLQYAFLPGASLWQGNPTAQGYHPVAACRAERPGQPVHSAACRRLLDGSARARLEWRQEAAFAAFERAHARG
[1]
  contaminated phosphatase activity: not observed; also recorded: not detected
Substrate specificity [2]
  action on substrate 5′-CMP: did not act on
[3]; McIlvaine buffer solution
  optimum pH: around 5.6
[3]; pH 9.0, activity at pH 5.6 = 100%
  relative activity (reactivity): about 40%
[3]; pH from about 5.0 to about 8.0, activity at pH 5.6 = 100%
  relative activity (reaction property): ≥ 70%
[4]
  IMP production: IMP was produced
Substrate specificity [5]
  action on substrate 5′-UMP: did not act on
Substrate specificity [6]
  action on adenosine as fraction of the action on 5′-AMP: 1/10
Substrate specificity [6]; activity with respect to 5′ AMP = 100%
  action on substrate Adenosine: also acted on and weak
[7]
  residual activity: ≥ 80%
